# Reference: patent US20110311523A1
# Target: human platelet derived growth factor-α receptor (PDGFRα) (human) (UniProt P16234)
# Assay: cell-based or functional assay
# Chain of human platelet derived growth factor-α receptor (PDGFRα) (human) (P16234 24-1089): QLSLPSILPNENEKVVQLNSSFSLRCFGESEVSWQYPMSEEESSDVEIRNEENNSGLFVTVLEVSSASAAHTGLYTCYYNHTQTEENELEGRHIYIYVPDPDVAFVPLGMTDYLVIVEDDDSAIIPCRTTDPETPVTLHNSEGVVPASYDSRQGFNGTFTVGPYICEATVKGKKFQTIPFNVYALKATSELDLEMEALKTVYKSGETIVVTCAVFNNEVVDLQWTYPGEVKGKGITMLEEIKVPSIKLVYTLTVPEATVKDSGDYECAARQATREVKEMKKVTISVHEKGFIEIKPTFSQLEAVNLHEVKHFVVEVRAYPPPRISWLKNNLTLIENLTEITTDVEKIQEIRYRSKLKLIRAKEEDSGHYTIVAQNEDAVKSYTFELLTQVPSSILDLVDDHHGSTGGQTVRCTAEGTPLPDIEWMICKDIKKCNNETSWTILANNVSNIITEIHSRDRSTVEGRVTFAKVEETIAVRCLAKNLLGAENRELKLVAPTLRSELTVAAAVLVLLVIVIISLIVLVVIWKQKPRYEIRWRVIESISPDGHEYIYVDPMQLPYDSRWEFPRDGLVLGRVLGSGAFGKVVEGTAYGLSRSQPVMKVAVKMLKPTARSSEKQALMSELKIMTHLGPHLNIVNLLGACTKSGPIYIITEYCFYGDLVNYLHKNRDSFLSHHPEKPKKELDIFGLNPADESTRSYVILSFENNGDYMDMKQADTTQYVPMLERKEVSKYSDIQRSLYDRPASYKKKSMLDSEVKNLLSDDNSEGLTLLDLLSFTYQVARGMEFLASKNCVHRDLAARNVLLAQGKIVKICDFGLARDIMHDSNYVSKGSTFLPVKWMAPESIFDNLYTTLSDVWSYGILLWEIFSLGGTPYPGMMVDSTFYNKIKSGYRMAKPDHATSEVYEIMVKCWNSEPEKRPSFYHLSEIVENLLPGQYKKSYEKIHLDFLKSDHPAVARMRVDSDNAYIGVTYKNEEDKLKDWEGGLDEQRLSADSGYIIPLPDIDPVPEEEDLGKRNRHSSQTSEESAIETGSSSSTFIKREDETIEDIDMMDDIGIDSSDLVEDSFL
row,Substance,decrease in HCMV entry (pp65 positive cells)
1,PDGF-AA (from UniProt P04085 87-211) (ligand),30%
2,"IMC-3G3, a humanized PDGFRα blocking antibody (ImClone Inc.)",45%
